Experimental findings from patent publication US20240270821A1, “GIP/GLP1/GCG TRI-RECEPTOR AGONISTS AND USES THEREOF” (priority 2023, published 2024) are described below.

To fix the notation:
B1: Example 189 (peptide)
chain: YXQGTFTSDFSXXLDKKAQXAFIEYLLEXGXSSGAPPPSGE
modifications: Aib, Orn, αMeL, 4Pal; lipidated Lys; C-terminal amide; synthetic construct; SITE 2: note = 2-Aminoisobutyric Acid; SITE 12: note = L-ornithine; SITE 13: note = alpha-methyl-leucine; SITE 17: note = Lysine is chemically modified through conjugation of the epsilon-amino group of the Lysine side chain with (2-[2-(2-Amino-ethoxy)-ethoxy]-acetyl)2-(gamma-Glu)
B2: Example 223 (peptide)
chain: B1 chain with F10X, L27I, X31E, E41S
modifications: Aib, 4Pal, Orn, αMeL, αMe4Pal, acylated Lys, amide; synthetic construct; SITE 2: note = 2-Aminoisobutyric Acid; SITE 10: note = 3-(4-Pyridyl)-L-alanine; SITE 12: note = L-ornithine; SITE 13: note = alpha-methyl-leucine; SITE 17: note = Lysine is chemically modified through conjugation of the epsilon-amino group of the Lysine side chain with (2-[2-(2-
B3: Example 192 (peptide)
chain: B1 chain with X31P, E41S
modifications: Aib, Orn, αMeL; lipidated Lys (AEEA-γGlu2-C18 diacid); C-term amide; synthetic construct; SITE 2: note = 2-Aminoisobutyric Acid; SITE 12: note = L-ornithine; SITE 13: note = alpha-methyl-leucine; SITE 17: note = Lysine is chemically modified through conjugation of the epsilon-amino group of the Lysine side chain with (2-[2-(2-Amino-ethoxy)-ethoxy]-acetyl)-(gamma-Glu)
B4: Example 230 (peptide)
chain: B1 chain with X12R, L27I, X31E, E41S
modifications: non-natural residues, AEEA-γGlu-C18 diacid acyl on K, C-terminal amide; synthetic construct; SITE 2: note = 2-Aminoisobutyric Acid; SITE 13: note = alpha-methyl-leucine; SITE 17: note = Lysine is chemically modified through conjugation of the epsilon-amino group of the Lysine side chain with (2-[2-(2-Amino-ethoxy)-ethoxy]-acetyl)-(gamma-Glu)-CO-(CH2) 16-CO2H; SITE 20: n
B5: Example 226 (peptide)
chain: B1 chain with F10X, X12Q, L27I, X31E, E41S
modifications: non-natural residues, lipidated Lys, C-terminal amide; synthetic construct; SITE 2: note = 2-Aminoisobutyric Acid; SITE 10: note = 3-(4-Pyridyl)-L-alanine; SITE 13: note = alpha-methyl-leucine; SITE 17: note = Lysine is chemically modified through conjugation of the epsilon-amino group of the Lysine side chain with (2-[2-(2-Amino-ethoxy)-ethoxy]-acetyl)
B6: Example 225 (peptide)
chain: B1 chain with F10X, X12R, L27I, X31E
modifications: non-natural residues, AEEA-γGlu-C18 diacid acyl on K, C-terminal amide; synthetic construct; SITE 2: note = 2-Aminoisobutyric Acid; SITE 10: note = 3-(4-Pyridyl)-L-alanine; SITE 13: note = alpha-methyl-leucine; SITE 17: note = Lysine is chemically modified through conjugation of the epsilon-amino group of the Lysine side chain with (2-[2-(2-Amino-ethoxy)-ethoxy]-acetyl)
B7: Example 227 (peptide)
chain: B1 chain with F10X, X12Q, L27I, X31E
modifications: Aib, 4Pal, αMeL, αMe4Pal; K acylated AEEA-γGlu-C18 diacid; amide; synthetic construct; SITE 2: note = 2-Aminoisobutyric Acid; SITE 10: note = 3-(4-Pyridyl)-L-alanine; SITE 13: note = alpha-methyl-leucine; SITE 17: note = Lysine is chemically modified through conjugation of the epsilon-amino group of the Lysine side chain with (2-[2-(2-Amino-ethoxy)-ethoxy]-acetyl)
B8: Example 204 (peptide)
chain: B1 chain with X29A, X31P, E41T
modifications: non-natural residues, (γGlu)2-C18 diacid lysine acylation, C-terminal amide; synthetic construct; SITE 2: note = 2-Aminoisobutyric Acid; SITE 12: note = L-ornithine; SITE 13: note = alpha-methyl-leucine; SITE 17: note = Lysine is chemically modified through conjugation of the epsilon-amino group of the Lysine side chain with (gamma-Glu)2-CO-(CH2)16-CO2H; SITE 20: note = 2-Am
B9: Example 231 (peptide)
chain: B1 chain with X12R, L27I, X31E
modifications: non-natural residues; lipidated Lys; C-terminal amide; synthetic construct; SITE 2: note = 2-Aminoisobutyric Acid; SITE 13: note = alpha-methyl-leucine; SITE 17: note = Lysine is chemically modified through conjugation of the epsilon-amino group of the Lysine side chain with (2-[2-(2-Amino-ethoxy)-ethoxy]-acetyl)-(gamma-Glu)-CO-(CH2) 16-CO2H; SITE 20: n

Where a chain is given by its changes, count along the chain named.

The target in one assay is T1, human GIP receptor (human) (UniProt P48546).
T1 sequence (looked up): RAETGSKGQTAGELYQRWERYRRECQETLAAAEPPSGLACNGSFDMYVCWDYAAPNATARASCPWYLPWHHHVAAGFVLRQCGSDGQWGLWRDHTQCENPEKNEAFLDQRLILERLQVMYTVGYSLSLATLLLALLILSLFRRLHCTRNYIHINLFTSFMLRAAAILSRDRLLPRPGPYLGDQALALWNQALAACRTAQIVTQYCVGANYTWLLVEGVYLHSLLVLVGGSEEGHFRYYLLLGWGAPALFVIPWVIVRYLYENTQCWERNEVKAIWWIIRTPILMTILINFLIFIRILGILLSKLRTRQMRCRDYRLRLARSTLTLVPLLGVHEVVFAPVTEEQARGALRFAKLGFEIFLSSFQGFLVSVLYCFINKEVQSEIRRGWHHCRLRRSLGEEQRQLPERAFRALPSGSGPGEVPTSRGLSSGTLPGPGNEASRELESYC
Nature of the assay: cell-based or functional assay.
B1 gave a Relative cAMP EC50, nM (0.1% casein) of 0.0695 nM and a cAMP Rel EC50, nM (1% HSA) of 22.2 nM.

B2 returned a Relative cAMP EC50 of 0.215 nM and a cAMP Rel EC50, nM (1% HSA) of 37.2 nM.

As for B3, the Relative cAMP EC50, nM (0.1% casein) was 0.142 nM and the cAMP Rel EC50, nM (1% HSA) is 9.86 nM.

As for B4, the Relative cAMP EC50 came out at 0.0909 nM.

In turn, B5 showed a Relative cAMP EC50 of 0.127 nM and a cAMP Rel EC50, nM (1% HSA) of 32.2 nM.

B6 displayed a Relative cAMP EC50 of 0.213 nM and a cAMP Rel EC50, nM (1% HSA) of 40.2 nM.

In turn, B7 returned a Relative cAMP EC50 of 0.17 nM and a cAMP Rel EC50, nM (1% HSA) of 39.7 nM.

With B8, the Relative cAMP EC50 was found to be 0.181 nM and the cAMP Rel EC50, nM (1% HSA) stood at 16.7 nM.

In turn, B9 showed a Relative cAMP EC50 of 0.119 nM and a cAMP Rel EC50, nM (1% HSA) of 27.4 nM.

The target in a further assay is human glucagon receptor (human) (UniProt P47871). Nature of the assay: cell-based or functional assay.
human glucagon receptor (human), sequence (P47871 26-477): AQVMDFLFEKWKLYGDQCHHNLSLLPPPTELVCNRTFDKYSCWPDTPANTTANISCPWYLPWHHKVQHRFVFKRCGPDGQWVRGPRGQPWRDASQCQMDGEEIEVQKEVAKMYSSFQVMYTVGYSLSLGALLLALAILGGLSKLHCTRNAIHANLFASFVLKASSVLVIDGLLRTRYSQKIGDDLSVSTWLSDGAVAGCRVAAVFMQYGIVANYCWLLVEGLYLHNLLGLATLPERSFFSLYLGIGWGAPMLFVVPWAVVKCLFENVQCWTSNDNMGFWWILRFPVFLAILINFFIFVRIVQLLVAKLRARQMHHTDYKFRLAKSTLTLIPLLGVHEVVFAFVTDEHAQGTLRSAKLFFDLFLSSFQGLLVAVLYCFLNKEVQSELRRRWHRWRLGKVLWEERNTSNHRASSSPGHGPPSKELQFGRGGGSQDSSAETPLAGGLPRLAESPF
On to B1, for which the Relative cAMP EC50, nM (0.1% casein) turned out to be 6.28 nM and the cAMP Rel EC50, nM (1% HSA) was 853 nM.

B2: the Relative cAMP EC50 was determined as 1.57 nM and the cAMP Rel EC50, nM (1% HSA) was determined as 373 nM.

In turn, B3 yielded a Relative cAMP EC50, nM (0.1% casein) of 4.18 nM and a cAMP Rel EC50, nM (1% HSA) of 560 nM.

With B4, the Relative cAMP EC50 came out at 1.61 nM.

As for B5, the Relative cAMP EC50 was 3.08 nM and the cAMP Rel EC50, nM (1% HSA) turned out to be 763 nM.

The molecule B6 returned a Relative cAMP EC50 of 2.36 nM and a cAMP Rel EC50, nM (1% HSA) of 561 nM.

Regarding B7, the Relative cAMP EC50 is 4.22 nM and the cAMP Rel EC50, nM (1% HSA) is 937 nM.

As to B8, the Relative cAMP EC50 amounted to 6.92 nM and the cAMP Rel EC50, nM (1% HSA) was 572 nM.

For the molecule B9, the Relative cAMP EC50 was 2.12 nM and the cAMP Rel EC50, nM (1% HSA) came to 443 nM.

In the next assay the target is human GLP-1R (SNAP-GLP-1R expressed in HEK293 cells) (human) (UniProt P43220). Nature of the assay: cell-based or functional assay.
human GLP-1R (SNAP-GLP-1R expressed in HEK293 cells) (human), sequence (P43220 24-463): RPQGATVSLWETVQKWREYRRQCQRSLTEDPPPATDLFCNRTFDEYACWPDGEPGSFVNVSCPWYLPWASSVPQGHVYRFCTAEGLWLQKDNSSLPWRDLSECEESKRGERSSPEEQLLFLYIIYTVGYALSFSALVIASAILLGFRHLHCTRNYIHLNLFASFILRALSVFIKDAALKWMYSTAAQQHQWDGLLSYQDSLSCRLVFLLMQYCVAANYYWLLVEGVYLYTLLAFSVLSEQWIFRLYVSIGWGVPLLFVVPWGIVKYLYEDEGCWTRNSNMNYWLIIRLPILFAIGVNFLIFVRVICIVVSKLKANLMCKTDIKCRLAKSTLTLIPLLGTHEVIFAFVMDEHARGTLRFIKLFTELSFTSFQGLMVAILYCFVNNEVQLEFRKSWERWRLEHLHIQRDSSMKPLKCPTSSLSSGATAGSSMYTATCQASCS
B1 returned a GLP1R Internalization EC50 of 103 nM and an Internalization % TOP of 45.8%.

Molecule B2 gave a GLP1R Internalization EC50 of 45.8 nM and an Internalization % TOP of 59.3%.

B3 gave a GLP1R Internalization EC50 of 115 nM and an Internalization % TOP of 48.7%.

In turn, B4 registered a GLP1R Internalization EC50 of 34.4 nM and an Internalization % TOP of 31.2%.

Turning to B5, the GLP1R Internalization EC50 stood at 29.1 nM and the Internalization % TOP was 59.3%.

The molecule B6 registered a GLP1R Internalization EC50 of 26 nM and an Internalization % TOP of 56.7%.

For the molecule B7, the GLP1R Internalization EC50 was found to be 114 nM and the Internalization % TOP is 59.4%.

For B8, the GLP1R Internalization EC50 stood at 66.4 nM and the Internalization % TOP was determined as 45.5%.

B9: the GLP1R Internalization EC50 was found to be 36.1 nM and the Internalization % TOP was found to be 27.7%.

For another assay, the target named is hGLP-1R (Homo sapiens, UniProt P43220). Put plainly: cell-based or functional assay.
hGLP-1R, sequence (P43220 24-463): as above
In the case of B1, the Relative cAMP EC50, nM (0.1% casein) turned out to be 4.46 nM and the cAMP Rel EC50, nM (1% HSA) was 423 nM.

With B2, the Relative cAMP EC50 came out at 2.83 nM and the cAMP Rel EC50, nM (1% HSA) is 627 nM.

B3 showed a Relative cAMP EC50, nM (0.1% casein) of 9.77 nM and a cAMP Rel EC50, nM (1% HSA) of 719 nM.

As for B4, the Relative cAMP EC50 was determined as 0.937 nM.

With B5, the Relative cAMP EC50 worked out at 1.97 nM and the cAMP Rel EC50, nM (1% HSA) was 354 nM.

Take B6: the Relative cAMP EC50 came out at 2.44 nM and the cAMP Rel EC50, nM (1% HSA) is 438 nM.

Turning to B7, the Relative cAMP EC50 was 2.34 nM and the cAMP Rel EC50, nM (1% HSA) came to 418 nM.

For the molecule B8, the Relative cAMP EC50 is 2.34 nM and the cAMP Rel EC50, nM (1% HSA) was found to be 306 nM.

Molecule B9 gave a Relative cAMP EC50 of 1.3 nM and a cAMP Rel EC50, nM (1% HSA) of 223 nM.
